# According to the supplement of paper PMC9170038:
# Tested on: K4 kissing-loop RNA reporter
# Test: apparent KD of K4 kissing-loop reporter; higher = weaker reporter binding
# Conditions: Eterna round: R107
# Description: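 RNA-MaP round R107: designed RNA switches with theophylline, tryptophan, arginine or FMN aptamers are transcribed on-chip within common flanks. They are titrated with a labelled K4 kissing-loop RNA reporter in RNA-MaP buffer (100 mM Tris pH 7.5, 80 mM KCl, 4 mM MgCl2), without ligand or with the indicated ligand. Median apparent KD per design.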
# [1] = input ligand: theophylline 20 uM
# [2] = input ligand: tryptophan 2.4 mM
# 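Further: bound reporter read as fluorescence of individual clusters on recovered sequencing chips by microscopy, with normalized cluster intensities fitted with a binding model.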
Sequence,apparent KD of K4 kissing-loop reporter (input ligand: FMN 200 uM) [nM],apparent KD of K4 kissing-loop reporter (input ligand: arginine 13.2 mM) [nM],apparent KD of K4 kissing-loop reporter (input ligand: none) [nM],apparent KD of K4 kissing-loop reporter [1] [nM],apparent KD of K4 kissing-loop reporter [2] [nM]
AAAAUAAAAGCAGUCAUCGGAGUGAUGUUCCGAGGACCGGUACGGCCGCCACUCGACCAGACAAAGUCUGGAUGGCGAGACUGCA [#SwitchBubble 18 #K4Early],83.6,85.1,102,91.4,85.6
AAAUAGCAGCAACGAGUGAUGUUCGACGAUACCAGCCUCGAUAGAGGCCCUUGGCAGCGUAAAUGAUCACAAAGCCAAGGGCUGC [#SwitchBubble 2],382,372,458,453,397
AACUGUCAAGGACAACAUUACUGAGGUGAUACCAGCAUCGAAAGAUGCCCUUGGCAGCACCGACUUGCAGUGAUGUUGCAAGUAA [BrourdMod 11 - Jieux - Exclusion - Theophylline A],271,219,249,322,247
UUUUAAAUAUCUGAUACCAGAGAAAAUAUAUGUAGUGAUGUUAUAUACAAAAUAAAUAAGCUCCCUUGGCAGCAGUAUUAAUUUU [AstrosExyTheB#1],655,622,808,688,610
GGUAGCAUCGCGGCCGCCACUAAUCGCUAAGGCUCAGGACCCUAAUAGCGAGUGAUGUUCGCCCUUAGGACCGGGCGAUGCUACC,114,93.3,101,87.5,119
AAAAUAAACCAGUGAUGUUGGUGUCCAGAUACCAGCGACGAAAGUCGCCCUUGGCAGCUGUGGACGUACAAAAUAAGUACGUCCU,332,229,356,209,290
ACUAUCGAAAGAUAGUUCCCAGAGCUAGUAGAGGAUAUCUGGAAACAGAGAAGGCUACAAGAGUGAUGUUCUUCUAGCUUUGGGA,403,291,316,337,349
GAUACGAAGCAGUGAUGUUGCUUAUGAGAAGGAGCGCACGAAAGUGCAGGUAGGUCGCUCAGCCAUGUGGACGAAAACGUCCACA [whbob_SS_Arginine_A_sa111],90.2,109,97.4,126,78.1
UAAAAUAAAUAAUAGAGAGCGUUACUCGAAGGAGCGACGAAUUCGUCAGGUAGGUCGCGAGUGAUGUUCGCAAAUACGCUCUCAU [AK2 Exc Arginine A],838,655,850,696,682
CGAAGAUUCCAUGAUACCAGCCUCGGCCCAUAGAGUGAUGUUCUAGUCGGGUCCGUUCGCGGCCCUUGGCAGCAUUUCACCACGA [theeternabot_sameState_KL_Theo_B_44],197,172,178,216,159
CCUAUCUCAUACGAUACCAGUCAAUGAUAUUUUAUCAAUGCCAUCACCGAGUGAUGUUCGGACCCUUGGCAGCGUAUGGGAUAGG [whbob_Ex_Theo_B_sa101],266,212,253,417,238
UGAUACCAGACGGCCGCCACUCCCGUAAGUCAAAGACUUACCAAGAGUAUCGUCCAGUGAUGUUGGAGGACCGGGUCUGGUAUCU [FiskerMod 9 - Jieux - Exclusion - Tryptophan B],376,321,330,320,829
CGAGUGAUGUUCGUUCGUUUAUUUCGGUGACAGGAUAUGCGGAAACGCAGAAGGGUCACCUUUGAGUUACCGGAAUUAACGUUAU [Ex FMN A 29],564,453,623,558,455
AUUCUUUUUUUGAUGUUUUUUGUAUAAUGGCAGGAUAUCGUAGAAGCGAGAAGGGCUUUUAUGCGUUAUGAGUGAUGUUUGUAGG [szeewvmullin],254,262,261,340,205
AGUGACGUCGCGGCCGCCACUGAAAUGACAGUGAUGUUGUCAAAAGAAAGUGAUGUUAAGAAAUGCAGGACCGGGUGAUAGAAAA [semi-accidental],223,144,158,143,125
AGUCUGUAUGACAUAAGUGAUGUUUAUGUUCGAGGACCGGUACGGCCGCCACUCGCAAAUGUAUGAUUUCACGUUUGUGCAAGUA [KL-XTryp-A #analogue],196,183,207,220,292
CGUUUAUAGCAGGAUACCAGUACCCAUUAUGUACGUUUAUAGUAGAGUGAUGUUCUAAAGUACCCUUGGCAGCUUCCCGUGACCC [ExTheophylB.Z],113,171,131,179,85.4
AUGCCUAUGACGGCCGCCACUGAGAGUCAGUGAUGUUGACUCGAUACAGCUGAUUAGCAGCUAAUCAGGACCGGGUCAUACACAU [Tryp B SS t3],243,158,244,245,123
UGUAUGUGAUGUGAUACCAGUGAAGAGCCAGUGAUGUUGGUAGAACUGGUAUAUAAAUAACACCCUUGGCAGCACAAUCACGUAC [whbob_Ex_Theo_B_sa99],289,243,286,320,314
AAGCAGUCACUCGUAACCAUCGAAGAUGGUCGAGGACCGGUACGGCCGCCACUCGGAGUGAUGUUCCGAAGACUGCAAAAUAAAA [#SwitchBubble 12],237,238,299,292,607
UGAACCCGGUCGGCCGCCACUCUGAGAACCAUCGCCCUACGUGCAGUGAUGUUGUACCUAAUGAGGAGGACCGGGACUGGGCGGC [theeternabot_sameState_KL_Trp_B_36],316,277,360,204,223
